The text below walks through data of article PMC12211734, “In silico and in vitro characterisation and affinity maturation of human red blood cell binding aptamers†”.

Series [1] concerns the target GLUT1 (glucose transporter band 4.5) (Homo sapiens) (UniProt P11166). The experiment in a line: ELONA. The note with it: ELONA: protein coated at 10 nM in carbonate/bicarbonate pH 9.6; aptamer (1.5625 nM-5 uM, 95 C 5 min then snap-cooled) in 1x DPBS, 0.55 mM MgCl2, 0.05% ….
Series [2] deals with T1, Glycophorin A (Homo sapiens, UniProt P02724 20-91). As to the kind of experiment: ELONA; one-site fit, R2 0.716; text says low micromolar; ELONA: protein coated at 10 nM in carbonate/bicarbonate pH 9.6; aptamer (1.5625 nM-5 uM, 95 C 5 min then snap-cooled) in 1x DPBS, 0.55 mM MgCl2, 0.05% Tween-20, 1% BSA, 1 h, room temperature; SA-HRP/TMB read-out at 450 nm. The settings on record: protein: recombinant; label: 5' biotin; hairpin, 2 loops predicted by Mfold; CD indicates parallel G4.

In series [3] the target is T1, Glycophorin A. As to the kind of experiment: ELONA; one-site fit, R2 0.857; ELONA: protein coated at 10 nM in carbonate/bicarbonate pH 9.6; aptamer (1.5625 nM-5 uM, 95 C 5 min then snap-cooled) in 1x DPBS, 0.55 mM MgCl2, 0.05% Tween-20, 1% BSA, 1 h, room temperature; SA-HRP/TMB read-out at 450 nm. The settings on record: protein: recombinant; label: 5' biotin; hairpin, 3 loops predicted by Mfold; CD indicates parallel G4.

For series [4], the target named is T1, Glycophorin A. The experiment in a line: ELONA; one-site fit, R2 0.948; text says low micromolar; ELONA: protein coated at 10 nM in carbonate/bicarbonate pH 9.6; aptamer (1.5625 nM-5 uM, 95 C 5 min then snap-cooled) in 1x DPBS, 0.55 mM MgCl2, 0.05% Tween-20, 1% BSA, 1 h, room temperature; SA-HRP/TMB read-out at 450 nm. The note with it: protein: recombinant; label: 5' biotin; hairpin, 2 loops predicted by Mfold; CD B-DNA-like.

Sequence of GLUT1 (glucose transporter band 4.5) (Homo sapiens) (P11166 whole entry): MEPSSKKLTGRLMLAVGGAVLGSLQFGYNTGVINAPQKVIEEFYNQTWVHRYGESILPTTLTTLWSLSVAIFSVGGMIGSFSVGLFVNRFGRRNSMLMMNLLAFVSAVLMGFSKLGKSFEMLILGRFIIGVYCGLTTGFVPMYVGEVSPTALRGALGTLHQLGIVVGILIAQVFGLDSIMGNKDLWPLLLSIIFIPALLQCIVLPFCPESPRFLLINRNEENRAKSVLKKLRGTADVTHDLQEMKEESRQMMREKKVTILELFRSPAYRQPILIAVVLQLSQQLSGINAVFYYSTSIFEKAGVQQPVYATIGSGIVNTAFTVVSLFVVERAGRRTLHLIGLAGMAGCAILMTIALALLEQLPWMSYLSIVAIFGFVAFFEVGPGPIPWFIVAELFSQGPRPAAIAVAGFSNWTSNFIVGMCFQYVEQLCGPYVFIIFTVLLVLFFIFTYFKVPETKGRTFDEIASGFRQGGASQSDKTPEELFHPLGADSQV

What is called Kd is the concentration at which binding is half-saturated. “ATCCAGAGTGACGCAGCACGGGTTGGGGCTGGTTGTGTGTTGTTTTTTTGGCTGTATGTGGACACGGTGGCTTAGT [N1 aptamer (76 nt)]” yielded a Kd in series [1] of 59.5 nM.

Regarding “ATCCAGAGTGACGCAGCATGCGGGGAGAGGAGTGTGGGATGGGTTTGTTTGTTTAGGGTGGACACGGTGGCTTAGT [N4 aptamer (76 nt)]”, the Kd in series [1] worked out at 37.6 nM.

Consider “CTCCTCTGACTGTAACCACGTCGCGGGTAGGGGGAGGGCCGAGGAGGCTGTAGGTGGGTGGCATAGGTAGTCCAGAAGCC [BB1 aptamer (80 nt)]”, for which, in series [1], the Kd was 41.6 nM.

B1: N4 aptamer (76 nt) (structured_DNA)
DNA: ATCCAGAGTGACGCAGCATGCGGGGAGAGGAGTGTGGGATGGGTTTGTTTGTTTAGGGTGGACACGGTGGCTTAGT
Turning to B1, the Kd in the series with Glycophorin A [2] is 354 ± 227 nM.

B2: BB1 aptamer (80 nt) (structured_DNA)
DNA: CTCCTCTGACTGTAACCACGTCGCGGGTAGGGGGAGGGCCGAGGAGGCTGTAGGTGGGTGGCATAGGTAGTCCAGAAGCC
On to B2, for which the Kd in the series with Glycophorin A [3] is 25 ± 10.3 nM.

B3: N1 aptamer (76 nt) (ssDNA)
DNA: ATCCAGAGTGACGCAGCACGGGTTGGGGCTGGTTGTGTGTTGTTTTTTTGGCTGTATGTGGACACGGTGGCTTAGT
As to B3, in the series with Glycophorin A [4], the Kd is 356 ± 95.6 nM.
